doi:10.1101/2024.04.29.591687 (bioRxiv, 2024)

Biological target: T1, tGFP-tagged mCLDN5 (mouse, UniProt O54942 1-218)
T1 sequence: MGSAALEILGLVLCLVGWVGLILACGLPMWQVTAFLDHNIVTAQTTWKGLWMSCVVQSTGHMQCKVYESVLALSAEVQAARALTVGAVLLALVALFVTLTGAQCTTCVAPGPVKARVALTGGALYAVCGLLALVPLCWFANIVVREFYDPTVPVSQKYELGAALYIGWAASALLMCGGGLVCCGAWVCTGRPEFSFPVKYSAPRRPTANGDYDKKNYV
Assay: MST

ESVLALNAEVQAAR [f1-C5C2]
Kd: 68.3 µM
